Test results: article PMC5356885 (Oncotarget, 2016)

Biological target: T1, recombinant CaM for NMR (pETM11-CaM, tag cleaved) (UniProt P62149 1-149)
T1 construct: also called ^14N-CaM; ^15N-CaM
Experiment: NMR titration
Details: both partners purified

B1: histidine-tagged recombinant v-Myc bHLH-LZ fragment for NMR (131-amino acid construct, S314-A416) (domain or fragment)
chain: SNNRKCSSPRTLDSEENDKRRTHNVLERQRRNELKLRFFALRDQIPEVANNEKAPKVVILKKATEYVLSLQSDEHKLIAEKEQLRRRREQLKHNLEQLRNSRA
  binding result: binds

B2: tag-free Myc (v-Myc bHLH-LZ fragment without the histidine tag) (domain or fragment)
chain: B1 chain
modifications: ^15N-labelled
  binding result: binds
